Laboratory results reported in the supplement of paper PMC12636428.

system: Saccharomyces cerevisiae; experiment: transcriptional activation domain activity (GFP:mCherry ratio, weighted mean of sorted bins, harmonized to initial dataset scale) (arbitrary fluorescence ratio units); higher = stronger transcriptional activation; settings: beta-estradiol 1 µM; induction time 4 h
In short: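 The listed activation activity is a read-weighted mean of bin median fluorescence, averaged across barcodes and linearly mapped onto the initial dataset scale. Barcoded tiles, fused to an estradiol-inducible synthetic transcription factor, were integrated at URA3 in yeast diploids bearing a GFP reporter. Cells were held 4 hours at 30 °C in SC with 1 uM beta-estradiol, sorted into 8 GFP:mCherry bins, and sequenced, and tiles with fewer than 50 reads were excluded.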

Point of comparison: “TIGFVGFVMSLQKGYLKQQFGLFCWVHMSLLIIVLSSHFIVNNILEGLIWFWV”, “transcriptional activation domain activity” value 58700. Against it:
- TCRHSSPHVWWLIFGVLCIMYMMVLEVLLLGFVVLVLAPLVFIFWNLFLICIG — lower, 52700
- TCRLSSPHLWWLTFGILCVLYLMVLEIFLLGLLVFFVGPLFYLFWNVVLLCLG — higher, 79500
- TDAAADAPKEDEVKEGEEKMETESTEEKKESESAEEKPAEETAASADTEMAEA — lower, 25600
- TDAGPGEEDEEVVHEVRAKALRHVPVKPDDDADSKKKNNSPWQPEGLGPLRIL — lower, 34200
- TDDAKAKRKKEKKEKKEKSRSKKSADEGSDNEDGTSEERSKKRKSKSKSKSRS — lower, 30700
- TDDAPRVKTKAEKEKEKKEKEKQRKKEMAAKKKANAPAKQEAAKPAETKAAAA — lower, 41100
- TDDYFQTVLMSGLLRVLKDPASSGQHHTVIEAIMAIFKTWIMLAFAAVTRSSV — lower, 56900
- TDEAESKKAEEVPKTAEEAKPEESKAEETAMADETPKTEEAKPEDVKVEAHKE — lower, 19400
- TDILKFWHLVVHNGMLERAKGLVSITLTSDTRFVFKAISWRLVMLPRLKYLAL — higher, 76100
- TDMDLKILEDLCNISSLYEVPFGKHINHHDHNNAGNGCDGSSTGNNENGNQTM — higher, 77600
- TDPKPITDNGKNVPLDEIESLEIPNLDLTTTMNGYDVNLLMQNLNDMVNMKLH — higher, 91600
- TDRGGRRGKDYDPADRRHRRRGSSSSSDDRRRSRSRSKSRTRKAAETAAVAGV — higher, 59200
- TDSNATQKQLPVLTPSDLLSPFSVPSVSQVLFTNELRSMMLADNNIDSGAFPT — higher, 79900
- TDVYYALRPGYQDDEVWDLLPLPTFPQLHMLTLNMLHISFQFPNWWTLWFKWI — higher, 68900
- TDYYQAVGQHDFIKAFHDEIGPFHRKVYDNVIRKIFVLLAIILELPENYFVDR — lower, 40900
- TEAPKEEAAPAPVEEAPKQEEAPADAPAEEAAPAAAEEAPKETAAASPPKRGI — lower, 47800
- TEAPPAPAPEGGDDEEDGEGDEGGEAAAGGKKKKKKKKPAEKKVPEAPAPKKG — lower, 15400
- TECASIPFAKMRALLNGIPVTNLNDRDRMMLFIFKLVLLEVRSKNTLEILSNH — lower, 33400
- TEEDAINQSKESNMISINEMLQKQMDFELLGENHLKETQDYLALYKKAYGIEF — higher, 113000
- TEETPHDLPKNTAKGRDEEDFPLDYFPVSVEYPTEENAFDPFPPQAFTPAAPS — lower, 42500
- TEEVVEPAAEKPAKKSRKRKSDVAEAVAEEKPETPVKPKKAKKEVAKAEEVVA — lower, 20400
- TEGEPETPADGDEEEGGEAEAEGGEEKKEEEEGWGLPVKKKKGKKGKGSNDAT — lower, 26900
- TELYRFTLAQSEQPGMYPLDLAWLDWDLVSSLWSYSLWSIQLSIYFFCPFAYF — higher, 61400
- TENIERVLERGERIDLLVDKTGRLNVGANEFRRRSRGLRRRMWWKNVKLMALL — higher, 65200
- TEQEAIQKKRKKRKIREDNGISTVLFALEEVCAIILHRMQHRNGVPHVTTLVF — lower, 52100
- TEQSVFVGLLLYRLKYPANLVSLVLKLSAVQSTLFKVVFAVYLLVWWGIKQAR — higher, 63100
- TESVCWDFVWLTFYFTFGLTSLITSWAALPPLSQWSLSFGQLVPIFLLLFFLT — lower, 46700
- TETELYIPEFKLDPVNGYWFPHFVKYIIVALMMGLYILIVFWTLMIFKVVYKL — lower, 43100
- TEVHVARERIMSYALNLFQLAAGPSEYLANLQTGYHYVACLQWLLRFKIFALV — lower, 57300
- TEVQNYPHALDLITDNLDDDFQDELRGSLDVQARLLYGLIHARWIVTARGLSK — lower, 40200
- TEYIYQGSNGLRWPPLAFPEHFVYPTEYIAHVYSWLILGLSYVYLLLLVFFYY — lower, 46100
- TFARHTDQKWLEEVITEALNELAGLGIVRAHLIALRWCSERITITRVYCSRLL — lower, 43300
- TFFLMRDIFIMEFLAHCDLLTIFVLAQTGEYARDLVKAFFSCNLRLLVVIFLG — lower, 47700
- TFGLQTSDKNHYIVDAIHVAVARVGVYVQYPQLQKWSLGKIFYISVWKMRTKF — higher, 68800
- TFLANILPITFYFYFYLHFLFLFFFFLFSLSAFLFFLFLYFYFLFSPLFLPFI — higher, 63700
- TFLGFFDFTCSSPSYVIHHLDITNLFVSPFLFFPSFPSIFIFCWNILILGLFE — lower, 57300
- TFLLLPIFVCPHPNLLFGLGFSLILHACLRQIFLSSLVICVFLSLLVIYMLYV — lower, 50900
- TFLLLSMPALLLLFSALGVCFLLSTSGLFFLSTSGFFFLLTTSGFFFFLFFML — lower, 37100
- TFLQVCGSSSIGFSSINLSLRTMAIYGQSLYVVIALVILILGHWCLLLHGLML — higher, 63800
- TFQHLSRTTYEDFVNTKQFFARVRVLRRLYSCNKQEIWQSLIFSTLACLLDRP — higher, 60900
- TFQPEHTCFPFFLFFFFLFFPPLSFFLPLFFPYSFSVAPLLSAPTVTTHTFTF — lower, 52800
- TFSNGEGERVSAWDARETEDGGREIFIEGEEVRVVVVQIRDGRVADWKGAVRD — lower, 30200
- TFTDIPVVVCHVFKQKLAKLMSNLCTMFPNAGWLVYSITSIEFQKHGVTHRND — lower, 51100
- TFVERVYTCLNYRIYKIKILGGTCALLIFVWYFPGFVLRNVLVGMLGHVVLSI — higher, 65400
- TFVRLVMLIAMKVFKFDFLVLSYLATIVYSVCFLTYLCDWHSIFPFAWYHHIY — lower, 47000
- TGAFGATANTGSAFGQRPAFGSPAPTGFGAAQPAATGFGGGGAFGAGANNTTS — lower, 22300
- TGAGLFFFFHLFLCVWGIEILLVALDFPFFFFWFPYCAWAVSVRLGFGMIPKI — higher, 66900
- TGAGTGAFGSTNNTTSNGGIFGSQPPATGNAFGGGGAFGQNKPATGFGAAPST — lower, 40200
- TGAKAPEGGKQLIVVVSSDKGLCGGIHSAVTKKTRQEYAAAPAEDKPQLIVVG — higher, 63400
- TGAPIRLVAEKAEEQEQDQEGEAPAQDQAQDQEQTQDQGQARAQAGTKAQATK — lower, 8780
- TGDDDAAKTTPKKRGDADGTPKTAKSTPRKRKTKAEGDGECSPKKRGRKTKVV — lower, 36500
- TGEKFGIKRKEQQKPEQTAEETVALAKNDTPSFASVFILAYGIHKTLLLPVRL — lower, 41500
- TGGAGATRTSKAKADRHVTQAGHRRLRAQAACERCRRRKLKCEPSGASCVACV — lower, 48800
- TGGFGSTNTGGGGLFGGGNTSNTGGGFGSTAGGFGSTNTTSAFGGAAKPAFGA — lower, 19300
- TGGISELQNALDDTRASFAYVRLQYANDKESKREKFILVIWIGKSVKVMRKAK — lower, 40200
- TGGLAELQDTLDDARASFAYVRVKYSNDKESQREKFILIVWIGKSVKVMRRAK — lower, 33600
- TGGLPELREHLDDGRASYAYARVTYSNDKESQREKFVLVVWIGPACKVMRKAK — lower, 25700
- TGGSLFGANKPAFGNAASTSGPFGGGASSGFGGNTGAFGSPASTALGATTGEC — lower, 51300
- TGILAVTLWNIFINKYWPKRRALVVIVILLHVLITVNFATNWAFTYSAFIQNG — lower, 49800
- TGKRKFRSSFLLYLAARWCPLFCVITILVGVDPINRINCQAYVVFAFLFANIS — lower, 52000
- TGLDGTAYVMFWTINVNVLMLLSQWILEERVRSRALQFCFRYYYFMVYFIFYR — lower, 55300
- TGNSVWAFHALLSKGYFHMLCKDIDINPERVLATLMLVLSHIFERQLCKHSDI — lower, 48500
- TGPTNVGLIILIIVSFFQFNFFLPVHQSFAPKLLKHHYIIYRMICSQLSYLVL — higher, 60900
- TGQGGLEEVKGKLDETKASFAYVRITYANDKESQREKFILIIFIGAEVKVMRK — lower, 37500
- TGRLQFKWAFVPYILARFVLLGQLLALTLVLRNLQTLIHCGKVLRWLTIVSNV — higher, 60000
- TGSTIVRGVLHVFSDQKVNLEQISFGQLNKMIGLLGERRDYRTLSWLLTILWN — higher, 73300
- TGTEQKKGIGGRRRRSKQASKQGSRPVCGHACACVCLCVPCLSCVCVSVLHLL — higher, 67800
- TGVGLGVCARHEFVLANSAVDLQRGERYANMDYCAASLLRHICLLLFIVFLYD — lower, 57700
- TGWCCLLMSIFSFNHAVLFVAFIFPNGVSCRKLLWNAMIGYVISLECSNLLLL — higher, 60800
- TGYKKKKLGHPSEKVVERHASCEPGTRLYSQKLFGRYVLRLLFVVAYMFVKSF — lower, 34800
- THHAFPLRLLVAIVVLLDCHSLLQIALGTCTWAISYHVRPFALTTVILCCSIT — lower, 41300
- THSKKQHCDVCKHPYSFTKVYASDMPKQLPLLLVLRKLVQQFFSVLLFSIRAI — lower, 45400
- THYLCFIFSPRKLWPMNTQVSIPLFHLLILPVSPWIKQLYWLVFWNLFFVWWM — lower, 56200
- TIALMGQDSIYLQVLAGDPNEAQSKNARRVYRLLKRGKHWVLVTLLLSNVIVN — lower, 27400
- TIDSSGVVLTPDPLSFDIGNFDSFSTSLYGFWPLTNAFDFTPYNSGSLAWLLL — higher, 99800
- TIHHLKDSRSSSWTVAIDNNSNNNKVSDNQPDFVDFQELLDNDTLGNDLLETT — higher, 61400
- TIHLVNTIQVIVLILDRFLYGIIPLFEIHTCAFFPLLISFWHVSYLLYYVIMF — lower, 37200
- TIIGLTSAVLLPVVVFIPYIPCWLFLYLVNLLFPLIFICFTGKVIQLTFLYYS — lower, 50100
- TIITNRGTIPNGLGRDIWTLQPDMITSFAYWFYHMEYAYFLNLVLLKASILFF — lower, 57800
- TIMYGVRFVVVLLTMEIMIHFMYMVAIFHAKPDWSAYTPFQLSMLGYFNLNHI — lower, 46200
- TINLSLPPRDRYVLVATDYAHVLREMPCLYDEAVQHMKLPAGFFHLLGRILLR — lower, 58100
- TIPGLIRTSPRFGIMLLCLLLSIIFLFTDVIFMIVVSRRGGMNPFWRLALVFK — lower, 52600
